The record followed here is the supplement of paper PMC9170038.

The series deals with MS2 coat protein. The series can be described thus: apparent KD of MS2 coat protein; designed switch direction (-1 OFF switch, 1 ON switch): 1; higher = weaker reporter binding. In outline:
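Each step of the titration lasted 0.8–1.5 h at the lowest concentration and 10–20 min at the highest. The protein, SNAP-549-labelled MS2 coat protein, went from 0.7 or 1.5 nM doubling to 3 µM over RNA switches transcribed on Illumina chips by stalled E. coli RNA polymerase. Normalised cluster fluorescence was curve-fitted, and the per-design median over clusters is given as apparent KD.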

[1] abbreviates: Eterna round: R95, input ligand: FMN 200 uM.
The mark [2] stands for this setting: Eterna round: R95, input ligand: microRNA oligo, concentration not stated.
[3] abbreviates: Eterna round: R95, input ligand: none.
Setting [4] is: input ligand: microRNA oligo, concentration not stated.

On to “GGUGUACAUGAGGAUCACCCAUGUCGACCGCUCACAGGAUAUUUAUUACAAACUGGUAGCGGAGAAGGGUGAGGGC [Maarraar] (puzzle: Same State 1)”, for which the “apparent KD of MS2 coat protein” value runs as follows: under setting [1], 36.4 nM; under setting [2], 32.6 nM; under setting [3], 37.6 nM.

For “GGUUGUUAGUGAGGAUAUACGUACACUCUACAUGAGGAUCACCCAUGUUUUGCCCUUGAUUGUUGGUAGAAGGCACUUGGUUAU [JR_SSNG2_Sub050] (Eterna round: R96, puzzle: Same State NG 2)”, the “apparent KD of MS2 coat protein” value is, setting by setting: (input ligand: FMN 200 uM) 40.7 nM; under setting [4], 84.7 nM; (input ligand: none) 87.3 nM.

“GGUUUAGUCAAGCGCAGUUGCACUUGAAAACAUGAGGAUCACCCAUGUUUGGGACAAGCUUUGCUCCUCGUCUUUCC [Dicebior] (puzzle: Sensor for hsa-mir-208a)”: the “apparent KD of MS2 coat protein” value reads like this: under setting [1], 194 nM; under setting [2], 78.2 nM; under setting [3], 386 nM.

For the sequence “GUACAUAUCAGAGGAUAUCACGUCGUUUAGACGUGAGAAGGCUGAUCACACAUGAAUAUUAAUACAUGAGGAUCACCCAUGUAC [SSNG1/13-A3] (Eterna round: R96, puzzle: Same State NG 1)”, the “apparent KD of MS2 coat protein” value runs as follows: (input ligand: FMN 200 uM) 23.8 nM; under setting [4], 31.2 nM; (input ligand: none) 32.7 nM.

“GUAGCAUACCGAGGAUAUUCAUAAUACAUGAGGAUCACCCAUGUAAGGCCACAUUAGUGGCCUUGGGAGAAGGCGGAAUGCUAC [Xeonanis - 20 Mod43] (Eterna round: R96, puzzle: Same State NG 2)”: the “apparent KD of MS2 coat protein” value runs as follows: (input ligand: FMN 200 uM) 13.7 nM; under setting [4], 35.7 nM; (input ligand: none) 44 nM.

With “GUAGCAUACCGAGGAUAUUCAUACCGGAAACGGACAUGAGGAUCACCCAUGUGGCGAAAGCCUUGGGAGAAGGCGGAAUGCUAC [Xeonanis - 20 Mod75] (Eterna round: R96, puzzle: Same State NG 2)”, the “apparent KD of MS2 coat protein” value (input ligand: FMN 200 uM) is 18.4 nM, the “apparent KD of MS2 coat protein” value under setting [4] is 341 nM and the “apparent KD of MS2 coat protein” value (input ligand: none) was 675 nM.

For the sequence “GUAGCAUACCGAGGAUAUUCAUAUAAUAAAUAACAUGAGGAUCACCCAUGUAGGCGAAAGCCUUGGGAGAAGGCGGAAUGCUAC [Xeonanis - 20 Mod57] (Eterna round: R96, puzzle: Same State NG 2)”, the “apparent KD of MS2 coat protein” value (input ligand: FMN 200 uM) was found to be 13.5 nM, the “apparent KD of MS2 coat protein” value under setting [4] amounted to 108 nM and the “apparent KD of MS2 coat protein” value (input ligand: none) was 112 nM.

“GUAGCAUACCGAGGAUAUUCAUAUAAUAACAUGAGGAUCACCCAUGUUUAUAGGCGAAAGCCUUGGGAGAAGGCGGAAUGCUAC [Xeonanis - 20 Mod63] (Eterna round: R96, puzzle: Same State NG 2)”: the “apparent KD of MS2 coat protein” value was found to be 10.4 nM (input ligand: FMN 200 uM), 12.3 nM under setting [4] and 18.8 nM (input ligand: none).

With “GUAGCAUACCGAGGAUAUUCAUAUAAUAAUAACAUGAGGAUCACCCAUGUAAGGCGAAAGCCUUGGGAGAAGGCGGAAUGCUAC [Xeonanis - 20 Mod60] (Eterna round: R96, puzzle: Same State NG 2)”, the “apparent KD of MS2 coat protein” value by setting is: (input ligand: FMN 200 uM) 11.6 nM; under setting [4], 30 nM; (input ligand: none) 63.6 nM.

Turning to “GUAGCAUACCGAGGAUAUUCAUAUACAUGAGGAUCACCCAUGUUUAGGCCACAUUAGUGGCCUUGGGAGAAGGCGGAAUGCUAC [Xeonanis - 20 Mod44] (Eterna round: R96, puzzle: Same State NG 2)”, the “apparent KD of MS2 coat protein” value was determined as 13 nM (input ligand: FMN 200 uM), 15.7 nM under setting [4] and 23.4 nM (input ligand: none).

In the case of “GUAGCAUACCGAGGAUAUUCAUAUACAUGAGGAUCACCCAUGUUUAUAGGCCGAUUACGGCCUUGGGAGAAGGCGGAAUGCUAC [Xeonanis - 20 Mod25] (Eterna round: R96, puzzle: Same State NG 2)”, the “apparent KD of MS2 coat protein” value is, setting by setting: (input ligand: FMN 200 uM) 11.7 nM; under setting [4], 9.52 nM; (input ligand: none) 17.6 nM.

On to “GUAGCAUACCGAGGAUAUUCAUAUUAACAUGAGGAUCACCCAUGUUGGCCACAUUAGUGGCCUUGGGAGAAGGCGGAAUGCUAC [Xeonanis - 20 Mod38] (Eterna round: R96, puzzle: Same State NG 2)”, for which the “apparent KD of MS2 coat protein” value is 19.6 nM (input ligand: FMN 200 uM), 107 nM under setting [4] and 140 nM (input ligand: none).

As to “GUAGCAUACCGAGGAUAUUCAUAUUAUAACAUGAGGAUCACCCAUGUAGGCCGAUUACGGCCUUGGGAGAAGGCGGAAUGCUAC [Xeonanis - 20 Mod19] (Eterna round: R96, puzzle: Same State NG 2)”, the “apparent KD of MS2 coat protein” value is 27.9 nM (input ligand: FMN 200 uM), 229 nM under setting [4] and 342 nM (input ligand: none).

In the case of “GUAGCAUACCGAGGAUAUUCAUAUUAUAACAUGAGGAUCACCCAUGUAGGUCGAUUACGACCUUGGGAGAAGGCGGAAUGCUAC [Xeonanis - 20 Mod35] (Eterna round: R96, puzzle: Same State NG 2)”, the “apparent KD of MS2 coat protein” value (input ligand: FMN 200 uM) was found to be 34.7 nM, the “apparent KD of MS2 coat protein” value under setting [4] was 307 nM and the “apparent KD of MS2 coat protein” value (input ligand: none) was 210 nM.

On to “GUAGCAUGCAGCGAGGAUAUUCAUAUUAAAACAUGAGGAUCACCCAUGUAGGCCAAAAGGCCUUGGGAGAAGGCGCACAUGCUAC [Xeonanis - 20] (Eterna round: R96, puzzle: Same State 2)”, for which the “apparent KD of MS2 coat protein” value (input ligand: FMN 200 uM) stood at 37.8 nM, the “apparent KD of MS2 coat protein” value under setting [4] came out at 360 nM and the “apparent KD of MS2 coat protein” value (input ligand: none) is 536 nM.

Take “GUAGCAUGCAGCGAGGAUAUUCAUAUUAAAACAUGAGGAUCACCCAUGUAGGCCAAAAGGCCUUGGGAGAAGGCGCACAUGCUAC [Xeonanis - 20] (puzzle: Same State 2)”: the “apparent KD of MS2 coat protein” value reads like this: under setting [1], 31.2 nM; under setting [2], 527 nM; under setting [3], 717 nM.

On to “GUCAGGUAAGCUUUUUUCUCGUAGUGUAAACAUGAGGAUCACCCAUGUGCUCACCCUGGAUCUUUGGAUCGCAGAAA [Atormace] (puzzle: Sensor for hsa-mir-208a)”, for which the “apparent KD of MS2 coat protein” value is 16.5 nM under setting [1], 14.3 nM under setting [2] and 17.1 nM under setting [3].

For “GUGCGGGUAAGAGGAUAUACAAAUUCUCGUUCUGAGACGAGAACAUGAGGAUCACCCAUGUCUAAGUAGAAGGUUUCAGGCACC [Eternabot solution 28] (Eterna round: R96, puzzle: Same State NG 2)”, the “apparent KD of MS2 coat protein” value (input ligand: FMN 200 uM) was determined as 21.3 nM, the “apparent KD of MS2 coat protein” value under setting [4] turned out to be 18.2 nM and the “apparent KD of MS2 coat protein” value (input ligand: none) came to 23 nM.

For the sequence “GUGCUCGUGUAAGGAUAUGCUUCCGUUUCGGCUGCAGAAGGUACUAUAAUACAUGAGGAUCACCCAUGUCUCUUUUGUUUGGUG [salish99_SSNG1_r04_908] (Eterna round: R96, puzzle: Same State NG 1)”, the “apparent KD of MS2 coat protein” value (input ligand: FMN 200 uM) was 86.1 nM, the “apparent KD of MS2 coat protein” value under setting [4] worked out at 58.6 nM and the “apparent KD of MS2 coat protein” value (input ligand: none) was 76.5 nM.

Take “GUGCUCGUGUGAGGAUAUGCUGCCGGGUCGGCUGCAGAAGGUACUAUUAUACAUGAGGAUCACCCAUGUCGCUUUUCUCCGGUG [salish99_SSNG1_r04_918] (Eterna round: R96, puzzle: Same State NG 1)”: the “apparent KD of MS2 coat protein” value under setting [4] is 34.1 nM.

Turning to “GUGGAGGGUUGAGGAUAUUGAAUACAUAUGUUUAACAUGAGGAUCACCCAUGUGGGUUGCGGUAUCGAGAAGGUAAGUUGCUGG [salish99_SSNG2_r04_038] (Eterna round: R96, puzzle: Same State NG 2)”, the “apparent KD of MS2 coat protein” value (input ligand: FMN 200 uM) was determined as 105 nM, the “apparent KD of MS2 coat protein” value under setting [4] worked out at 94.2 nM and the “apparent KD of MS2 coat protein” value (input ligand: none) amounted to 89.3 nM.

For the sequence “GUGGCCCAGGCACAGGAUAUGUUUCUCGUAACAUGAGGAUCACCCAUGUGCCUAUGAGAUUUUUUGCAGAAGGGUGCACGCCACG [JL Atiinbe mod 02] (puzzle: Same State 2)”, the “apparent KD of MS2 coat protein” value under setting [2] is 134 nM.

As to “GUGGCGGGUUGAGGAUAUUGGUUGCCGCUGUUUUACAUGAGGAUCACCCAUGUGGGUUGCGGUUUCGAGAAGGGCGGUUGCUGG [salish99_SSNG2_r04_056] (Eterna round: R96, puzzle: Same State NG 2)”, the “apparent KD of MS2 coat protein” value turned out to be 18.2 nM (input ligand: FMN 200 uM), 14.6 nM under setting [4] and 24 nM (input ligand: none).

Regarding “GUGGUCAGACAUGAGGAUCACCCAUGUGGAAUAAAUAACAACUAGGAUAUAUAAUAUAGGAUAUAAUAGAAGGAGUGAUUGGUG (Eterna round: R96, puzzle: Same State NG 3)”, the “apparent KD of MS2 coat protein” value under setting [4] was 121 nM.

“GUGGUCAGACAUGAGGAUCACCCAUGUGGAAUAAAUAACAACUAGGAUAUGUAAUAUAGGAUAUAACAGAAGGAGUGAUUGGUG (Eterna round: R96, puzzle: Same State NG 3)”: the “apparent KD of MS2 coat protein” value under setting [4] was 111 nM.

Regarding “GUGGUCAGACAUGAGGAUCACCCAUGUGGAAUAAAUAAGGAGAAGGAUAUAGAAUAUAGGAUAUACUAGAAGGUCUGGUUGGUG (Eterna round: R96, puzzle: Same State NG 3)”, the “apparent KD of MS2 coat protein” value under setting [4] came out at 63.7 nM.

As to “GUGGUCAGACAUGAGGAUCACCCAUGUGGAAUAAAUAAGGGAAAGGAUAUAAAAUAUAGGAUAUAUUAGAAGGUUCGGUUGGUG (Eterna round: R96, puzzle: Same State NG 3)”, the “apparent KD of MS2 coat protein” value runs as follows: (input ligand: FMN 200 uM) 131 nM; under setting [4], 83.9 nM; (input ligand: none) 89.6 nM.

For the sequence “GUGGUCAGACAUGAGGAUCACCCAUGUGGAAUAAAUAAGGGACAGGAUAUUUAAUAUAGGAUAUAGAAGAAGGGUUGGUUGGUG (Eterna round: R96, puzzle: Same State NG 3)”, the “apparent KD of MS2 coat protein” value under setting [4] was found to be 88.7 nM.

With “GUGGUCAGACAUGAGGAUCACCCAUGUGGAAUAAAUAAGGGUUAGGAUAUGGAAUAUAGGAUAUACCAGAAGGGAUGGUUGGUG (Eterna round: R96, puzzle: Same State NG 3)”, the “apparent KD of MS2 coat protein” value is, setting by setting: (input ligand: FMN 200 uM) 123 nM; under setting [4], 108 nM; (input ligand: none) 111 nM.
